Molecular target: the molecule itself
Assay: crystal structure; Ca2+-loaded mS100A7ΔC at 12 to 14 mg/ml in 20 mM Tris pH 8.0, 100 mM NaCl, 1% glycerol, 1 mM TCEP, 2 mM CaCl2; crystals in 0.1 M potassium thiocyanate, 20% PEG MME 2K, 0.01 M strontium chloride, 20 °C; space group P212121, 1.69 Å

B1: mouse S100A7 tailless (mS100A7ΔC), deletion mutant mS100A7(1-100) (domain or fragment, UniProt Q6S5I3 1-100, looked up)
chain: MPDTPVEDSLFQIIHCFHHYAAREGDKETLSLEELKALLLDSVPRFMDTLGRRQPYYITELFRAADKNKDNQICFDEFLYILGKLVKDYHLQFHRQLCAH
notes: mouse S100A7 (S100A15a), UniProt Q6S5I3, residues 1-100: truncated at His100, lacks the last eight residues of the C-terminal tail; Gene synthesised and subcloned in pET11a (NdeI/BamHI); no tag is mentioned; Crystallised Ca2+-loaded; residues R95-H100 are poorly defined in the structure; also called murine S100A7ΔC; S100A15a; source: E. coli BL21 RIL, purified (supernatant heated to 85 °C, DEAE …)
binding result: binds

Reference: publication PMC10598741, “Comparative analysis of the physical properties of murine and human S100A7: Insight into why zinc piracy is mediated by human but not murine S100A7” (The Journal of Biological Chemistry, 2023)
